Data published in paper PMC3526264, “The C-terminus of Dpb2 is required for interaction with Pol2 and for cell viability” (Nucleic Acids Research, 2012).

Molecular target: T1, Pol2 (S. cerevisiae, UniProt P21951 1-2222)
T1 construct: Pol2, catalytic subunit of DNA polymerase epsilon, S. cerevisiae; over-expression vector pJL1; also called catalytic subunit of DNA polymerase ε; source: S. cerevisiae pY116, galactose-induced over-expression (pJL1), co-expressed with the other Pol ε subunits
Assay: co-purification (ion-exchange and size-exclusion chromatography); Pol2, Dpb2-201, Dpb3 and Dpb4 co-over-expressed in S. cerevisiae pY116; Pol ε purification protocol as in ref. 23; Coomassie-stained 10% SDS-PAGE, band intensities measured
Details: partners not purified

T1 sequence (P21951 whole entry): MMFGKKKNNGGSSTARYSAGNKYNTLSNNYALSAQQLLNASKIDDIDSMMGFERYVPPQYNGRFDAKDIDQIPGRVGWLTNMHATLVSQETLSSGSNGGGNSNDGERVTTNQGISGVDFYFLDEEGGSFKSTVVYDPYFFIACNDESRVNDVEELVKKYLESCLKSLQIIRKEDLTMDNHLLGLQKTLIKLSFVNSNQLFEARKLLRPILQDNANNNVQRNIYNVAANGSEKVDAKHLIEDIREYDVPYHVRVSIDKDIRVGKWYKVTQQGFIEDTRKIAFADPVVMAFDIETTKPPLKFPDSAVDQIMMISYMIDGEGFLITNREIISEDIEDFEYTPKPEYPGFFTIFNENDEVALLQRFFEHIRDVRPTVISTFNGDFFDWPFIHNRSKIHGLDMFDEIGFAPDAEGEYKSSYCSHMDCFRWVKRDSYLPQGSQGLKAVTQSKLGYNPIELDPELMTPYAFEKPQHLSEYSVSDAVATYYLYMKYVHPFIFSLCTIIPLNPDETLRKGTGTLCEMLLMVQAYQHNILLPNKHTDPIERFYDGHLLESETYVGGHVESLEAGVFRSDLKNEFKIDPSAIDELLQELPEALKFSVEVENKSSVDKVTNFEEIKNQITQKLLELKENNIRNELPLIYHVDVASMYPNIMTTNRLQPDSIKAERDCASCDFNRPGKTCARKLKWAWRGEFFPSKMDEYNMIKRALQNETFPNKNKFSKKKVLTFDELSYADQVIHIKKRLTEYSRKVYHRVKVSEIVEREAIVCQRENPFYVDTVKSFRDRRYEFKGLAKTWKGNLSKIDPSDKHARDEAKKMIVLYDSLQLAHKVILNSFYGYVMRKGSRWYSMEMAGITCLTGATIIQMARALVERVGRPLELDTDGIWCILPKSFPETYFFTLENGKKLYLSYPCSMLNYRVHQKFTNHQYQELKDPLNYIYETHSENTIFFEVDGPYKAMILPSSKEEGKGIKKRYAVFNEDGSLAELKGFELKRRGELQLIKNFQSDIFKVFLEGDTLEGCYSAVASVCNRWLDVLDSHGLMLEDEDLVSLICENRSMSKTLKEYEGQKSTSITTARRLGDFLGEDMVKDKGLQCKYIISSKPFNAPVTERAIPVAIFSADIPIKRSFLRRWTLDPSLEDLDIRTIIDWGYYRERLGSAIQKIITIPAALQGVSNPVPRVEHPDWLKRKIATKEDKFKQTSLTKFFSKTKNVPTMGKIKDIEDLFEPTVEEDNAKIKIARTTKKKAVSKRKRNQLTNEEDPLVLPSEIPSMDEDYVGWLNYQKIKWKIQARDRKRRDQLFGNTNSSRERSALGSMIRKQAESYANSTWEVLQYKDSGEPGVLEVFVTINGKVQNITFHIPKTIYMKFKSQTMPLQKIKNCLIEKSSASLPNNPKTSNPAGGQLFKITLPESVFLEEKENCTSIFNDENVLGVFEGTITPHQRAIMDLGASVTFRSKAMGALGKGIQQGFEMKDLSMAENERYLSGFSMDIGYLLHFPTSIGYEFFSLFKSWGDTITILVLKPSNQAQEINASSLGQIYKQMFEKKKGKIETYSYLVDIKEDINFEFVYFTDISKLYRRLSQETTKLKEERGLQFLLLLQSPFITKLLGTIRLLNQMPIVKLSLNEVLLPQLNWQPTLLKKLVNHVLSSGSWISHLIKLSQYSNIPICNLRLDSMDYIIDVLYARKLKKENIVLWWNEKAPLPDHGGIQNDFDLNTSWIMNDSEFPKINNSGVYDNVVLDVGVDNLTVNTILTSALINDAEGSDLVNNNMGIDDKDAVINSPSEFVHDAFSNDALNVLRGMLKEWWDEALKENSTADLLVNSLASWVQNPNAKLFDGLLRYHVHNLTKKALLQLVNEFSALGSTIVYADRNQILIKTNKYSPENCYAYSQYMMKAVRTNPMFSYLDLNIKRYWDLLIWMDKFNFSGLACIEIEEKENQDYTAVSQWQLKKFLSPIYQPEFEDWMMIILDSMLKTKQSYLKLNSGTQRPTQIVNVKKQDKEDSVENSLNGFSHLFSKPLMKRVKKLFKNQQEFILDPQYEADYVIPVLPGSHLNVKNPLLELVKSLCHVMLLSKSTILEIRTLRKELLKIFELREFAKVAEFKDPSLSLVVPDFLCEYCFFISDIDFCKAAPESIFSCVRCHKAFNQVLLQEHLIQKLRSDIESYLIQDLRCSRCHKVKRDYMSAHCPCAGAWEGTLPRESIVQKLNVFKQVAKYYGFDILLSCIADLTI

stoichiometry N	Binder
~1.1 Dpb3 per Pol2	Dpb3 (natural protein, S. cerevisiae, UniProt P27344 1-201, looked up, Dpb3, subunit of DNA polymerase epsilon, S. cerevisiae; over-expression vector pJL5 (Dpb3 and Dpb4); source: S. cerevisiae pY116, galactose-induced over-expression (pJL5), co-expressed with the other Pol ε subunits) MSNLVKEKAPVFPISKVKKIAKCDPEYVITSNVAISATAFAAELFVQNLVEESLVLAQLNSKGKTSLRLSLNSIEECVEKRDNFRFLEDAIKQLKKNSALDKKRELNMQPGRSDQEVVIEEPELHEDDGVEEEEEEDEVSEEEEPVHNEELLDDSKDQQNDKSTRSVASLLSRFQYKSALDVGEHSDSSDIEVDHTKSTDP
~1.4 Dpb4 per Pol2	Dpb4 (natural protein, S. cerevisiae, UniProt Q04603 1-196, looked up, Dpb4, subunit of DNA polymerase epsilon, S. cerevisiae; over-expression vector pJL5 (Dpb3 and Dpb4); source: S. cerevisiae pY116, galactose-induced over-expression (pJL5), co-expressed with the other Pol ε subunits) MPPKGWRKDAQGNYPTTSYIKEQENITIQDLLFPKSTIVNLAREVPQQSGKKLLINKDASLALQRGATVFVNHLLLFAREIAKSQDKKSCSVDDVLSALDHIGHSALKGPVRDKLDEYQAAVEQRKKEKLDSGEVDADGDIDMGEDKENVPVEKVKEHDEIEEQGDALQDVEESSEKKQKTESQDVETRVQNLEQT
